Measured values from the nanobody polyreactivity screen of Harvey et al. (2022).

Experiment: yeast display, Sf9 membrane polyspecificity reagent, FACS + sequencing; frameworks hold sequencing errors
Summary of the method: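 Synthetic nanobody libraries on Saccharomyces cerevisiae BJ5465 were galactose-induced for 36–48 hours, stained 1 hour at 4 °C with 10% biotinylated, detergent-solubilized Sf9 membrane reagent and enriched on streptavidin microbeads. FACS then separated cells into low and high (top ~1%) gates by anti-HA (expression) and streptavidin (reagent binding) fluorescence. Genes were colony-PCR amplified, MiSeq 2 × 250 sequenced and CDR-length filtered. A clone's polyreactivity label is that of its gate of origin.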

Sequence	polyreactivity (PSR sort gate)
QVQLVESGGGLVQAGGSLRLSCAASGRIFWGYAMGWYRQAPGKERELVAAISWSGGSTYYADSVKGRFTISRDNAKNTVYLQMNSLKPEDTAVYYCNAYSDGDEDYWGQGTQVTVSS	low polyreactivity
QVQLVESGGGLVQAGGSLRLSCAASGRIFWHNAMGWYRQAPGQERELVAAITGGGSTYYADSVKGRFSISRDDAKNTVYLQMNSLKPEDTAVYYCATLGSLRYYWPGYDYWGQGTQVTVSS	low polyreactivity
QVQLVESGGGLVQAGGSLRLSCAASGRIFWHNTMGWYRQAPGKERELVATITGGDGNTYYADSVKGRFTISRDNAKNTVYLQMNSLKPEDNAVYYCAKAIVSYDYGRYGKWHEYWGQGTQVTVSS	low polyreactivity
QVQLVESGGGLVQAGGSLRLSCAASGRIFWQYAMGWYRQAPGNERELVAGITSNGGSTYYADSVKGRFTISRDNAKNTVYLQMNSLKPEDTAVYYCNKVRPGWTYEYGYWGQGTQVTVSS	high polyreactivity
QVQLVESGGGLVQAGGSLRLSCAASGRIFWRYAMGWYRQAPGKERELVAAITGRTGSTNYADSVKGRFTISRDNANNTVYLQMNSLKREDTAVYYCAAAHHRWTGLFPSGYEFDYWGQGTQVTVSS	low polyreactivity
QVQLVESGGGLVQAGGSLRLSCAASGRIFWSYPMGWYRQAPGKERELVAAITWRTGRTYYADSVKGRFTISRDNAKNTVYLQMNSLKPEDTAVYYCAAEGYLWGQSYNGLNYDSWGQGTQVTVSS	low polyreactivity
QVQLVESGGGLVQAGGSLRLSCAASGRIFWTYAMGWYRHAPGKERELVAVISIGGTTYYADTVKGRFTISRDNAKNTVYLQMNSLKPEDTAVYYSAAPPSNATGFLSYDYWGQGTQVTVSS	low polyreactivity
QVQLVESGGGLVQAGGSLRLSCAASGRIFWVYAMGGYRQAPGKERELVAAINTSVGRTHYADSVKGRFTISRDNAKNTVYLQMNSLKPEDTAVYYCAADVKRYGWEYGYWGQGTQVTVSS	low polyreactivity
QVQLVESGGGLVQAGGSLRLSCAASGRIFWVYAMGWSRQAPGKERERVAAITWRGVSTYFADSVKGRFTISRDNAKNTVYLQMNSLKPEDTAVYYCAVSLYGYSGNYGPYWYDYWGQGTQVTVSS	low polyreactivity
QVQLVESGGGLVQAGGSLRLSCAASGRIFWYNAMGWSRQAPGKERELVAAISSIDGTTYYADSLKGRFTISRDNAKNTFYLQMNSLKPEDTAVYYCAAEDPADQYDYWGQGTQVTVSS	high polyreactivity
QVQLVESGGGLVQAGGSLRLSCAASGRIFWYNAMGWSRQAPGKESELVAAISWRGSRTYYADSVKGRFTISRDNAKNTVYLQMNSLKPEDTAVYYCAADPDVYAYYGYDYWGQGTQVTVSS	high polyreactivity
QVQLVESGGGLVQAGGSLRLSCAASGRIFWYYGMGWYRQAPGKERELVAAIRGGGSTYYADSVKGRFTISRDNAKNTVYLQMNSLKPEETAVYYCAVDWSRFYNRGGDYWGQGTQVTVSS	high polyreactivity
QVQLVESGGGLVQAGGSLRLSCAASGRIFYANAMGWYRQAPGKERELVAAISQSGGSTFYADSVKGRFTISRDNAKNTVYLQMNSLKPEDTAVYYCATEYYGPVYDLDYDYWGQGTQVTVSS	low polyreactivity
QVQLVESGGGLVQAGGSLRLSCAASGRIFYANAMGWYRQAPGKERELVAAISSGGSTYYADSVKGRFTISRDNAKNTVYLQMNSLKPEDTAVYYCAVYTHKKVRPEYDYWGQGTQVTVSS	low polyreactivity
QVQLVESGGGLVQAGGSLRLSCAASGRIFYANAMGWYRQAPGKERELVAAISWSGGSTYYADSVKGRFTISRDNAKNTVYLQMNSLKPEDTAVYYCNALGRSYRSRRYDYWGQGTQVTVSS	high polyreactivity
QVQLVESGGGLVQAGGSLRLSCAASGRIFYANAMGWYRQAPGKERELVASISARGGSTYYADSVKGRFTISRDNAKNTVYLQMNSLKPEDTAVYYCAKRDTFKPYASLYDYWGQGTQVTVSS	high polyreactivity
QVQLVESGGGLVQAGGSLRLSCAASGRIFYANDMGWYRQAPGKERELVAAITNTVSTTYADSVKGRFTISRDNAKNTVYLQMNSLKPEDTAVYYCNADDPYVPKADMGYWGQGTQVTVSS	low polyreactivity
